According to publication PMC7663122, “Protein-Assisted Room-Temperature Assembly of Rigid, Immobile Holliday Junctions and Hierarchical DNA Nanostructures”:

Columns and labels:
[1] = molecular target: T1, Redβ (single-strand annealing protein) (UniProt P03698 1-261); assay: SEC, gel and AFM; excess Redβ (ssDNA/Redβ 1:25 stated), 25 °C, 1 mM MgCl2; B1 buffer: 50 mM Tris-HCl pH 8.0, 150 mM NaCl, 1 mM MgCl2, 25 °C (sticky-end assemblies); 44mer coating and annealing at 37 °C; SEC in 100 mM Tris-HCl pH 8.0, 150 mM NaCl, 1 mM MgCl2; settings: protein: recombinant, tags: Strep-tag II, four-way junction
T1 sequence: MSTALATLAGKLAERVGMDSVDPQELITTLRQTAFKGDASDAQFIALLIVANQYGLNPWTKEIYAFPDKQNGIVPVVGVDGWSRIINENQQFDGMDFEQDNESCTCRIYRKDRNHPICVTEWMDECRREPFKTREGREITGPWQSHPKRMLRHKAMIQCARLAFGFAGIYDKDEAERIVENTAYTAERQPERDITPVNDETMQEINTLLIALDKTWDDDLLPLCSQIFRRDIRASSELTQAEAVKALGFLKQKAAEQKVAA

[2] = molecular target: T1, Redβ (single-strand annealing protein); assay: EMSA (agarose), SEC and AFM; strands coated first, then mixed; ssDNA/Redβ 1:1 (incomplete) and 1:2 (saturated); B1 buffer: 50 mM Tris-HCl pH 8.0, 150 mM NaCl, 1 mM MgCl2, 25 °C (sticky-end assemblies); 44mer coating and annealing at 37 °C; SEC in 100 mM Tris-HCl pH 8.0, 150 mM NaCl, 1 mM MgCl2; settings: protein: recombinant; tags: Strep-tag II; blunt-ended immobile four-way junction, 44 bp arms
[3] = molecular target: T1, Redβ (single-strand annealing protein); assay: EMSA (agarose) and AFM; strands coated first, then mixed; ssDNA/Redβ 1:1 and 1:2; completely coated at 1:1, slightly increased affinity vs 44mer; B1 buffer: 50 mM Tris-HCl pH 8.0, 150 mM NaCl, 1 mM MgCl2, 25 °C (sticky-end assemblies); 44mer coating and annealing at 37 °C; SEC in 100 mM Tris-HCl pH 8.0, 150 mM NaCl, 1 mM MgCl2; settings: protein: recombinant; tags: Strep-tag II; blunt-ended immobile four-way junction, 33 bp arms
[4] = molecular target: T1, Redβ (single-strand annealing protein); assay: EMSA (agarose) and AFM; strands coated first at 37 °C, then mixed; ssDNA/Redβ 1:1 to 1:4; weak interaction, residual free ssDNA at 1:1; B1 buffer: 50 mM Tris-HCl pH 8.0, 150 mM NaCl, 1 mM MgCl2, 25 °C (sticky-end assemblies); 44mer coating and annealing at 37 °C; SEC in 100 mM Tris-HCl pH 8.0, 150 mM NaCl, 1 mM MgCl2; settings: protein: recombinant; tags: Strep-tag II; blunt-ended immobile four-way junction, 22 bp arms

B1: S5S8 sticky-end Holliday junction (structured_DNA)
DNA 1: ATGTTGATCGGGAGAGGTCGAACCCTCTTTGATATTTGTGACTTTCGGGGCAACTATTTCCTCGGCGACCACGTTCGGTGACGGACCT
DNA 2: AGGTCCGTCACCGAACGTGGTCGCCGAGGAAATAGTTGCCCCGACAGGAAGCTAACTAACATGAGACAAAAATGTGGCCTCGTTACGG
DNA 3: TCTCATGTTAGTTAGCTTCCTGACGCCTGGCCGTATCTTCGGCTTACTATCGCCTTCAGCATGACC
DNA 4: AGCCGAAGATACGGCCAGGCGTAAGTCACAAATATCAAAGAGGGTTCGACCTCTCCCGATCAACAT
binding result ([1]; two 3' overhangs 22 nt (strands 2 and 3)): binds

B2: 88mer Holliday junction (structured_DNA)
DNA 1: CAGTTCCCTAAGACATCGACGTAGGACCTTGATCAACGCAGCTATGACTTCAGAGATTCTCTTATCTGGAAGCGTCCACGAACCGGCC
DNA 2: GGCCGGTTCGTGGACGCTTCCAGATAAGAGAATCTCTGAAGTCATTTGTACACTTTTCTATTCACGAGCAAAGCCTGGTATACTAGAA
DNA 3: TTCTAGTATACCAGGCTTTGCTCGTGAATAGAAAAGTGTACAAACCCACATTGCCATCGGGCGAAATGGGGTGTGCAGCGCATGCTCG
DNA 4: CGAGCATGCGCTGCACACCCCATTTCGCCCGATGGCAATGTGGGTAGCTGCGTTGATCAAGGTCCTACGTCGATGTCTTAGGGAACTG
binding result [2]: binds

B3: 66mer Holliday junction (structured_DNA)
DNA 1: ATGCCGCATACAACAAGTGGGGGGATGAATAGGATGTACTGCCTTTTTTATCGACTGTCCAATATG
DNA 2: CATATTGGACAGTCGATAAAAAAGGCAGTACATACTTGGTCCACTCTGGTACAAGATGAGGTGGAT
DNA 3: ATCCACCTCATCTTGTACCAGAGTGGACCAAGTAGTGCGCGATTGACGTTCGAGGCGGACTCTCCT
DNA 4: AGGAGAGTCCGCCTCGAACGTCAATCGCGCACTCCTATTCATCCCCCCACTTGTTGTATGCGGCAT
binding result [3]: binds

B4: S1S4 sticky-end Holliday junction (structured_DNA)
DNA 1: GATTCCTTCCGGGCGAATTTACCCCAGTGAACGCTGGTCCCCGCGGTCATGCTGAAGGCGATAGTA
DNA 2: GCGGGGACCAGCGTTCACTGGGTTATTGGGTATGACGAGCTTAGATTTGGTATATGGTCTCGACTA
DNA 3: TAGTCGAGACCATATACCAAATCTAAGCTCGTCATACCCAATAAGATGTACGTTGGCGGACAGTTACATATTGTGCGCTGCCGGTGGC
DNA 4: GCCACCGGCAGCGCACAATATGTAACTGTCCGCCAACGTACATCGTAAATTCGCCCGGAAGGAATCCCGTAACGAGGCCACATTTTTG
binding result ([1]; two 3' overhangs 22 nt (strands 1 and 4)): binds

B5: 44mer Holliday junction (structured_DNA)
DNA 1: CGATGCGAAATCTGTACGCGCACCACGTGAAGGTGCTAGTCCCC
DNA 2: GAATGTGTTGATGGTTAAGTTCTGCGCGTACAGATTTCGCATCG
DNA 3: GTGTCTATCATTAGCGGCTCAAGAACTTAACCATCAACACATTC
DNA 4: GGGGACTAGCACCTTCACGTGGTTGAGCCGCTAATGATAGACAC
binding result [4]: binds
